{
  "source": "patent US20060009452A1",
  "about": "“Therapeutic targeting of PARC/CCL18 and its signaling in pulmonary fibrosis” (priority 2004, published 2006)",
  "key": {"[1]": {"system": "mouse fibroblasts", "test": "Collagen Western blot in wild-type and Smad3-/- mouse fibroblasts", "assay_type": "cell-based", "procedure": "(§1) Collagen was quantified by Western blotting and the identity of collagen bands was confirmed by sensitivity to pepsin and collagenase digestion as described elsewhere in Atamas et al. (Am. J. Respir. Cell. Mol., 29:743-749 (2003)). In these assays, pro-collagen appears as a single or double band with a molecular weight of approximately 175 kDa (4,27,28).\nTransient transfection with 1 μg of Sp1 and Smad3 dominant negative mutant constructs abrogated basal and PARC-stimulated upregulation of collagen production, whereas transfection with 0.2 μg of the constructs inhibited the response to PARC stimulation but not basal collagen production (FIG. 19A,B)."}, "[2]": {"system": "mink lung epithelial cells", "test": "Mink lung epithelial cell proliferation assay (thymidine incorporation)", "assay_type": "cell-based", "procedure": "Mink Lung Epithelial Cell Proliferation Assay for Active TGF-β. Mink lung epithelial cell line CCL-64 was purchased from American Type Culture Collection (ATCC, Manassas, Va.) and maintained in high-serum medium. For proliferation assays, these cells were plated in 96-well plates at 1×10^4 cells/well in low-serum fibroblast cell culture medium and incubated overnight in humidified atmosphere of 5% CO2 at 37° C. The medium was then replaced with fibroblast cell culture supernatants or titrated dilutions rhTGF-β in low-serum medium, with and without neutralizing anti-pan-TGF-β antibody (clone 1D11 from R&D Systems), and incubation continued for additional 24 hours. Six hours before the end of the assay, wells were pulsed with 1 μCi of 3H-thymidine (Amersham). Quadruplicate cultures were harvested automatically and tritiated thymidine incorporation was measured with a TopCount NXT liquid scintillation counter (Perkin Elmer, Downers Grove, Ill.). Data were expressed as percent inhibition (versus low-serum medium used as a negative control), neutralized by 1 μg/ml of anti-TGF-β antibody (this concentration of the antibody was established in preliminary experiments as sufficient to completely abrogate the inhibitory effect of the fibroblast conditioned medium on mink lung epithelial cell proliferation). […]"}, "[3]": {"system": "Smad3", "test": "Smad3 immunoprecipitation and phosphorylation Western blot", "assay_type": "cell-based, human", "settings": "fibroblasts activated with cytokine", "procedure": "(§2) To determine if PARC stimulated phosphorylation of Sp1 and Smad3, these factors were immunoprecipitated from lysates of fibroblasts that had been activated with recombinant human PARC for up to 24 hours, and the levels of their phosphorylation were tested in Western blotting assays using anti-phosphoserine and anti-phospho-Smad2/3 antibodies. Equal loading was controlled by stripping the membranes and re-developing them with anti-Sp1, anti-Smad3 and anti-Smad2/3 antibodies (FIG. 17).\n(§3) Preparation of fibroblast lysates, immunoprecipitation of Sp1 and Smad2/3, normalization of protein concentration in the samples with BioRad assays, electrophoretic separation, Western blotting, membrane stripping and re-development with different antibodies were performed as described in Atamas et al. (Am. J. Respir. Cell. Mol., 29:743-749 (2003); J. Immunol. 168: 1139-1145 (2002); and Arthritis Rheum., 42:1168-1178 (1999)), which are hereby incorporated by reference. Rabbit antibodies for total Smad2/3 and Sp1 were from Upstate (Waltham, Masss.). Antiphospho-Smad2/3 antibody and goat antibody for total Smad3 were from Santa Cruz Biotechnology (Santa Cruz, Calif.), as was anti-gp130 antibody used to confirm equal loading of the samples. Antiphosphoserine antibody was from Biomol (Plymouth Meeting, Pa.)."}, "[4]": {"system": "ERK1/2", "test": "Immunoblotting for phosphorylation of ERK1/2", "assay_type": "cell-based, human", "settings": "lung fibroblasts LF1/LF2 activated with rhPARC"}, "[5]": {"system": "lung fibroblasts", "test": "Western blotting of fibroblast culture supernatants for collagen type I / α1(I)", "assay_type": "cell-based, human", "procedure": "Collagen Production Assays. Collagen was quantified as described elsewhere (Atamas S P et al.). Briefly, fibroblasts were cultured with β-aminopropionitrile (Sigma) to prevent collagen cross-linking, and Western blotting assays for collagen were performed using rabbit affinity purified anti-collagen type I antibody (Rockland, Gilbertsville, Pa.). Before electrophoresis, samples were reduced and denatured by boiling in Laemmli buffer containing β-mercaptoethanol. Human purified collagen type I (Southern Biotech, Birmingham, Ala.) was used as a positive control in these assays. The identity of collagen bands was confirmed by sensitivity to pepsin and collagenase (both from Sigma) digestion, as described (Atamas S P et al.). Under these conditions, pro-collagen appears as a single or double band around 175 kDa (Gaidarova S et al., Stefanovic B et al.). Images were collected using a Storm densitometer and band densities analyzed with ImageQuant software (Molecular Dynamics, Sunnyvale, Calif.).\nWestern blotting assays for collagen were performed using rabbit affinity purified anti-collagen type I antibody (Rockland, Gilbertsville, Pa.). Before electrophoresis, samples were reduced and denatured by boiling in Laemmli buffer containing β-mercaptoethanol. Human purified collagen type I (Southern Biotech, Birmingham, Ala.) was used as a positive control in these assays.\nas §1"}, "[6]": {"system": "α2(I) collagen mRNA", "test": "Real-time PCR for α2(I) collagen mRNA relative to 18S rRNA", "assay_type": "cell-based, human"}, "[7]": {"system": "Sp1", "test": "Sp1 immunoprecipitation and anti-phosphoserine Western blot", "assay_type": "cell-based, human", "settings": "fibroblasts activated with rhPARC up to 24 hours", "procedure": "as §2, §3"}},
  "note": "Entries after “also recorded” stand apart in the source; their conditions may differ.",
  "data": [
    {"molecule": "rhPARC: Recombinant human pulmonary and activation-regulated chemokine (CC chemokine CCL18), purchased from R&D Systems and Cell Sciences (protein) AQVGTNKELCCLVYTSWQIPQKFIVDYSETSPQCPKPGVILLTKRGRQICADPNKKWVQKYISDLKLNA", "values": [
      {"measurement": "collagen production response to PARC stimulation", "setting": "[1]; Smad3-/- mouse fibroblasts", "value": "did not"},
      {"measurement": "collagen production response to PARC stimulation", "setting": "[1]; wild-type mouse fibroblasts", "value": "responded to PARC stimulation by upregulating collagen production"},
      {"measurement": "direct effect on proliferation of mink lung epithelial cells", "setting": "[2]", "value": "did not affect proliferation of mink lung epithelial cells"},
      {"measurement": "phosphorylation of immunoprecipitated Smad3", "setting": "[3]", "value": "No changes in phosphorylation"},
      {"measurement": "phosphorylation of ERK1/2", "setting": "[4]", "value": "increased; also recorded: activated"},
      {"measurement": "concentration causing detectable stimulation of collagen production", "setting": "[5]", "value": "below 300 ng/ml"},
      {"measurement": "collagen production, dose-response", "setting": "[5]; LF1 and LF4, 30 ng/ml and 300 ng/ml rhPARC", "value": "significant increase in collagen production"},
      {"measurement": "increase in collagen production over control non-treated cells", "setting": "[5]; LF1 and LF4, 3, 6 and 12 h of activation", "value": "≤ 1.2±0.2", "unit": "fold"},
      {"measurement": "combined density of procollagen bands, fold higher than non-stimulated control", "setting": "[5]; LF2 cells, 300 ng/ml rhPARC, 48 h", "value": 4.2, "unit": "fold"},
      {"measurement": "increase in densities of the collagen bands relative to the control culture", "setting": "[5]; LF4, 300 ng/ml rhPARC, 24 h", "value": 4.4},
      {"measurement": "increase in densities of the collagen bands relative to the control culture", "setting": "[5]; LF4, 300 ng/ml rhPARC, 48 h", "value": 3.2},
      {"measurement": "increase in collagen production, densitometry at shorter non-saturating exposure", "setting": "[5]; LF4, 300 ng/ml rhPARC, 72 h", "value": 3.4, "unit": "fold"},
      {"measurement": "increase in densities of the collagen bands relative to the control culture", "setting": "[5]; LF4, 300 ng/ml rhPARC, 72 h, bands saturated", "value": 1.3},
      {"measurement": "combined density of procollagen bands, fold higher than non-stimulated control", "setting": "[5]; LF4 cells, 100 ng/ml rhPARC, 48 h", "value": 3.6, "unit": "fold"},
      {"measurement": "steady-state collagen α2(I) mRNA level versus control", "setting": "[6]; LF1 and LF2, 300 ng/ml rhPARC, 3 and 6 h", "value": "transiently increased; also recorded: higher than in control cells"},
      {"measurement": "higher concentration of collagen mRNA in treated samples versus control", "setting": "[6]; lung fibroblasts, 300 ng/ml rhPARC, 6 h", "value": "approximately 4 fold"},
      {"measurement": "level of Sp1 phosphorylation", "setting": "[7]", "value": "consistently increased"}
    ]}
  ]
}
